# Measured values from patent publication US9757471B2, “Protozoan variant-specific surface proteins (VSP) as carriers for oral drug delivery” (priority 2012, dated 2017).
# “Also recorded” adds a separate entry of the source.
# B1: VSP1267: Giardia variant-specific surface protein expressed by clone WB-1267 (Uniprot:Q07317) (protein, listed as Giardia intestinalis)
# chain: MLLIAFYLILSTFAVDCKNSGNSCEAGQCDTIGDTEICMQCNQGKVPINGICTAHSEEAVTNAGCKKNGGTNIEESDKVCGQCGNGYFLHKGGCYKIGEAPGNLICADEASNPGARTAGVCGACKDGYYKNSDAVATADSCIACEDANCATCGGAGENKCTKCIDGYFVGATGNEGGCIKCDATTGPNSYKGVAGCAKCEKPKNAGPAKCIECAADYLKTEADEQTSCVSEAVCREGKTHFPTTDSAGGNKKVCVSCGTTNNGGIENCGECTSKESAARAGTEITCTKCSSNNLSPLGDACLTDCPAGTYAVSGDSGSVCKPCHNTCAGCQTDDRETSCTACYPGYSLLYESNGATGRCVKECTGAFITNCADGQCTANVGGAKYCTQCKDGYAPIDGICTAVAAAGRDVSVCTATGGKCTACTGNYALLSGGCYNTQTLPGKSVCKAVANSNDGKCKTCANGQAPDPATNFCPLCDSTCAECSTKNDADACTKCFPGYYKTGNKCIKCTESSNNGKKIDGIPDCLSCEAPINTGPVICYVKTDGTSDDNSGNGGDSTNKSGLSTGAIAGISVAAFVVVAGLVGFLCWWFICRGKA
# B2: VSP9B10: Giardia variant-specific surface protein of the WB isolate, clone WB-9B10 (Uniprot:Q9GS24) (protein, listed as Giardia intestinalis)
# chain: MFGSFVLAGVLVQIAWAGKATERAQEAQCADNTNCAAEACNVLIGGKLYCSRCNTGFVPINGQCADKEGATDKCKDGSGGDTADQTCGQCAEQTFMYKGGCYEAAQQPGQTMCQAADAGVCTQAAQGYFVPPGADASHQSVIPCGDEEEITVKNDKKYKGVLHCTRCNAPTEAADANAKAATCTACQADRYLKTAKDQATSCVTEQECTGTEGFFAKNGGTKTCEACAETCKTCKTEAAKCTSCKDDKPYLKKDNGSDTGTCVTEAECKTGNTHYPDDTEPKTCKTCAEGTSDGCATCEKGADGAVACKTCGNQKKVQPNKKGCVENCPSNSNDKKTPGTCECVEGYVPEEAGTGCTKKPDPPAAPCNTPGCKTCSEPKTSKEVCTECEDPKALTPTGQCIYGCEHLEGYYEGTSEGGKKACKKCEVENCLLCNENGQCETCKDGYYKKETACAKCDTSCKTCANGEPNGCTSCEAKKALSYEGEGNTGTCKSECKPGTNNCEKCELTVDGTAYCSKCKDANQFPQNGVCSAAAGKAITCTTKGTGVCDKCANGLLRMNGGCYETTKFPGKSVCEEAASAGDTCQVEAPGYHLNNNDLVTCSAGCKTCTSNTVCTECMDGYAKTDNKCTKCATGCATCAGSASNCDTCSTGYYKYKNACVSCTESNSDKTITGVANCANCAPPLNNKGSVLCYLVQSGENTNKSGLSAGAIAGIAVAVIIVVGGLVGFLCWWFMCRGKA
# B3: VSPH7: Giardia variant-specific surface protein of the GS/M isolate, clone GS-H7 (Uniprot: Q24992) (protein, listed as Giardia intestinalis)
# chain: MFLLINCLIASTLAGACSTTQANCVAEKCEMVGETEICTQCKQNYVPINGVCEAAASSNTKCQKASADEASDQTCGKCLSTTFMYKGGCYDKTGNLGRIICKTEGSDAGKCGACNDEKGFFDNPDAANNVDSCISCGDATGVTIPGSSTKTYKGVAGCAKCTKPSQISENTGTKEATCTECNANLYLKAVSSPTSATSCVSAEDCKTGYFPTTDTTDSKKKCLTCSTADKGGIDGCSACELLPSTTRASTVLISCSACSTNNLSPLKNECMQDCPAGTYADSNVCKPCHTSCASCKGDNTESSCTACYPGSVLSYGTDNTKGTCIAECTGKYLENCADGQCTATIAGSKYCSKCKSGFVPVNGLCVSAETARAAPPGSTPDKTNGVCTACTEKYFLESGGCYQAEKFPGNTLCTTADAGKCTTCANGQDKDSNGSCPACPTNCASCAKDNTKTCNKCFSGYYLDTAKACKKCSETSGNIQGVENCISCLAPTSPQSSTPVTCYVKTSGGGSGDNSTGGDSGPNLSSGAIAGISVAVIVVVGGLVGFLCWWFVCRGKA
# Key:
# [1] = type: physicochemical; settings: in the presence of VSP; no degradation after incubation at pH 2
# Protocol: To assess in vitro the capacity of VSP carriers to protect IL-2 from degradation, the capacity of a VSP carrier (e.g., recombinant VSP1267) to protect human IL-2 from conditions similar to those present in the GIT was evaluated. The capacity of the VSP to protect IL-2 from degradation caused by extreme pHs or by enzymatic proteolysis (e.g., by trypsin and/or pancreatine) was assayed using the methods described in the Examples above.
# IL-2 alone or mixed with VSP carrier was incubated at different pHs or with different concentration of proteolytic enzymes such as trypsin. The presence of IL-2 after the pH and proteolyitc enzyme challenges was detected using Coomassie stain of SDS-PAGE gels.
# [2] = test system: trypsin; experiment: hGH stability to trypsin, without or with VSP carrier (Western blot, silver staining); type: in vitro ADME
# Protocol: (§1) To evaluate in vitro the capacity of a VSP carrier to protect bioactive peptides from degradation, we evaluated the capacity of recombinant VSP1267 to protect human growth hormone (Somatotropin, hGH) (Biosidus, Argentina), an 191 amino acids long protein, from conditions similar to those present in the GIT. Similar to the previous analysis performed with the VSPs alone, the capacity of the VSP to protect hGH from degradation caused by extreme pHs or by enzymatic proteolysis was assayed.
# hGH was also treated for 90 min at 37° C. with several concentrations of trypsin (0, 100, 150, 200, and 500 μg/mL). […] This protective effect was observed up to a 150 μg/mL trypsin concentration.
# [3] = Serum hGH levels in mice after oral administration of hGH alone or with VSP carrier; type: in vivo; settings: hGH alone, oral 50 to 800 μg, female Balb/c mice
# Protocol: hGH serum levels were tested after oral administration, evaluating different doses and measurement times, to determine the best dose for combination with the VSP carrier VSP1267 (FIG. 11A). As in previous experiments, female Balb/c mice, 7 weeks old, were left without food intake for 2 hours and then received the doses indicated in […] (i.e., 50, 100, 200, 400 and 800 μg of hGH). In a parallel experiment, hGH was administered subcutaneously (FIG. 11A, inset). […] Thus, a direct relationship between absorption and these variables (time and concentration) could not be determined.
# [4] = type: physicochemical
# Protocol: as §1
# The anti-hGH monoclonal antibody was subsequently used to determine the degree of resistance of hGH to different pHs. hGH was incubated at different pHs (1.6, 2.0, 3.8, 5.0, 5.8, 7.0, 8.0, 9.0, 10.0, and 11.0) for 90 minutes.
# [5] = test system: trypsin; type: in vitro ADME; settings: hGH combined with chimeric VSP protein (SEQ ID NO: 589) derived from T. thermophila and G. intestinalis
# From the text: (§2) To determine if VSP-like proteins retain the Giardia VSP extracellular domain properties, and therefore can be used as VSP carriers or as components of chimeric VSP proteins, a DNA fragment of a Tetrahymena thermophila VSP-like protein encoding a VSP domain (TTHERM_00826790 hypothetical protein; SEQ ID NO: 590) was modified using stander molecular biology techniques to generate a chimeric VSP. The chimeric VSP protein (SEQ ID NO: 589) comprised the sequences encoding the signal peptide (SEQ ID NO: 591) of Giardia intestinalis VSP1267 and a His6 purification tag fused respectively to the amino terminus and carboxy terminus of the sequence of a VSP domain (SEQ ID NO: 592) located between amino acid positions 977 and 1465 of the VSP-like protein from Tetrahymena (SEQ ID NO: 590).
# (§3) The chimeric VSP was cloned into a bacmid for expression in Sf9 insect cells. Once expressed and secreted to the culture supernatant, the chimeric VSP protein was purified on a Nickel column as described in Example 2.
# (§4) The chimeric VSP protein was used to verify the stability of hGH to pH and trypsin sensitivity.
# [6] = type: physicochemical; settings: hGH combined with chimeric VSP protein (SEQ ID NO: 589) derived from T. thermophila and G. intestinalis
# From the text: as §2, §3, §4
# [7] = test system: trypsin; experiment: Western blot of VSPs after trophozoite trypsinization; type: in vitro ADME; settings: trophozoites, trypsin 200 μg/mL and 2 mg/mL, 90 min at 37° C., PBS pH 7.4, Western blot
# Protocol: Giardia parasite clones WB-9B10, WB-1267 and GS-H7 (expressing, respectively, the VSP9B10, VSP1267 and VSPH7 VSPs) were resuspended in PBS at pH 7.4 and treated for 90 min at 37° C. with variable concentrations of trypsin (200 μg/mL and 2 mg/mL). Then, the parasites were lysed and equivalent protein amounts were applied to each lane in the SDS-PAGE gels.
# [8] = pH resistance assay of VSPs on Giardia trophozoites (immunofluorescence); type: physicochemical; settings: trophozoites in RPMI, pH 1 to pH 10, 90 minutes, immunofluorescence microscopy
# Protocol: To determine whether VSPs are resistant to variable pH and to proteolytic digestion, two different Giardia isolates (clonal trophozoite populations) were treated with trypsin and with variable pH and the effect of those conditions on the VSP expressed by each isolate were monitored using immunofluorescence assays.
# For the pH resistance assay. Giardia parasites were resuspended in RPMI cell culture medium at variable pHs, from pH 1 to pH 10. in 1 pH unit increments (only pH 1, 3, 5 and 10 are shown in FIG. 2B). Giardia parasites were kept at the different pHs for 90 minutes, washed, and then incubated with the corresponding monoclonal antibody.
molecule,measurement,setting,value
"IL-10: human interleukin-10, anti-inflammatory cytokine",resistance to low pH,[1],resistant
Somatotropin [hGH],protection of hGH from trypsin degradation,[2]; VSP carrier added at 3:1 VSP/hGH (1:3 hGH to VSP) ratio,able to protect hGH from trypsin degradation; also recorded: protects hGH from trypsin degradation
same,hGH degradation by trypsin,"[2]; hGH alone, 90 min at 37° C., trypsin 100 to 500 μg/mL",rapidly degraded even at the lowest protease concentrations; also recorded: completely proteolyzed
same,oral absorption of hGH (serum levels) compared with subcutaneous,[3],much lower levels than subcutaneously absorption
same,variability of oral absorption regarding times and amounts,[3],highly variable
same,change of hGH degradation levels with VSP carrier at different pHs,[4],no significant changes
same,protection of hGH from degradation by trypsin,[5],able to protect hGH from degradation
same,protection of hGH from degradation at low pH,[6],able to protect hGH from degradation
B1,VSP survival of exposure to trypsin,[7],able to survive exposure to trypsin
B2,VSP epitopes after incubation at variable pHs,[8],remained intact
same,VSP survival of exposure to trypsin,[7],able to survive exposure to trypsin
B3,VSP epitopes after incubation at variable pHs,[8],remained intact
same,VSP survival of exposure to trypsin,[7],able to survive exposure to trypsin
